Here are results for two substances from PMC11014985, “TCTP regulates genotoxic stress and tumorigenicity via intercellular vesicular signaling” (EMBO Reports, 2024).

The target in test [1] is TCTP (translationally controlled tumor protein) (human) (UniProt P13693). Briefly: SPR; Biacore 2000; TCTP amine-coupled on CM5 chip (697 RU); DDX3 injected in two-fold dilutions 0.195 to 100 nM, 30 ul/min; HBS-EP (10 mM HEPES pH 7.2, 150 mM NaCl, 3 mM EDTA, 0.005% Tween 20); 25 C; global Langmuir binding with drifting baseline. For orientation: In SPR one partner is held on a chip, and binding of the other changes the refractive index at the surface.

The target is the same in test [2]. Briefly: SPR; positive control for the SPR experiments; who was immobilised and the conditions are not told for TSAP6 (Appendix Fig. S2); also run with sertraline and thioridazine.

Usually Kd stands for the free concentration of one partner at which half of the binding sites on the other are occupied at equilibrium, for simple one-to-one binding. Low readings indicate tighter binding, high ones weaker binding.

Sequence of TCTP (translationally controlled tumor protein) (human) (P13693 whole entry): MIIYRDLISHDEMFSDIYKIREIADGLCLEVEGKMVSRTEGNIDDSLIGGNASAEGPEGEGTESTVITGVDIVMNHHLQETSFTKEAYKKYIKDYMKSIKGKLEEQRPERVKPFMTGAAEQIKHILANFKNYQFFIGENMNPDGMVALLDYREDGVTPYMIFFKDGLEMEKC

In the case of “DDX3 wild-type (from UniProt O00571 1-662)”, the dissociation constant (Kd) in test [1] was 68.9 nM.
Turning to “TSAP6 (Tumor Suppressor Activated Protein) (from UniProt Q658P3 1-488) (natural protein)”, the Kd in test [2] is 1000 nM.
